To fix the notation:
T1: human ENPP3 (human, UniProt O14638 46-875, limits assumed)
T1 construct: neither the construct nor the method is stated; also called ectonucleotide pyrophosphatase/phosphodiesterase family member 3
T1 sequence (looked up): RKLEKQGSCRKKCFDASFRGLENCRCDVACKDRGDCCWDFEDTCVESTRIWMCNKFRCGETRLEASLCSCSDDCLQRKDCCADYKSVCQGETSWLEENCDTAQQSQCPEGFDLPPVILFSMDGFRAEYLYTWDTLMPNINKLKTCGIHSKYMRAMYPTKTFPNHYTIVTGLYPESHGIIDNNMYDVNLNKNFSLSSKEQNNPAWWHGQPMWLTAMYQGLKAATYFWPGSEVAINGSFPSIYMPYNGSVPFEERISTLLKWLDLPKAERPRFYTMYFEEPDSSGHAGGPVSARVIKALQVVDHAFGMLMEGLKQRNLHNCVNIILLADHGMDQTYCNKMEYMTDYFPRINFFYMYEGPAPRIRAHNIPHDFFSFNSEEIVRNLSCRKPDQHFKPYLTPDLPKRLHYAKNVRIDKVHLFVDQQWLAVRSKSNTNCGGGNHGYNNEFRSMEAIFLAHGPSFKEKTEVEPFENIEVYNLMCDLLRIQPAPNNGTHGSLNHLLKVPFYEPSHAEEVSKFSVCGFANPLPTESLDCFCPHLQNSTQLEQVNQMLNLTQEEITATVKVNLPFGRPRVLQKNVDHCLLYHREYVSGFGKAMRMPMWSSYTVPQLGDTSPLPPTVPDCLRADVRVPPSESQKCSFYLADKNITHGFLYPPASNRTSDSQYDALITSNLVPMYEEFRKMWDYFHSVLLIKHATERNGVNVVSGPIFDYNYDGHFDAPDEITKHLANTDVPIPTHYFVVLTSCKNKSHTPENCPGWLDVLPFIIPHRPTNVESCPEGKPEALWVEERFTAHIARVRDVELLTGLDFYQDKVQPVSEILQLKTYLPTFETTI

T2: ENPP1 on CHOK1 cells (UniProt P22413 1-925, limits assumed)
T2 construct: whole, on cells; also called ectonucleotide pyrophosphatase/phosphodiesterase family member 1; CHO ENPP1 OE
T2 sequence (looked up): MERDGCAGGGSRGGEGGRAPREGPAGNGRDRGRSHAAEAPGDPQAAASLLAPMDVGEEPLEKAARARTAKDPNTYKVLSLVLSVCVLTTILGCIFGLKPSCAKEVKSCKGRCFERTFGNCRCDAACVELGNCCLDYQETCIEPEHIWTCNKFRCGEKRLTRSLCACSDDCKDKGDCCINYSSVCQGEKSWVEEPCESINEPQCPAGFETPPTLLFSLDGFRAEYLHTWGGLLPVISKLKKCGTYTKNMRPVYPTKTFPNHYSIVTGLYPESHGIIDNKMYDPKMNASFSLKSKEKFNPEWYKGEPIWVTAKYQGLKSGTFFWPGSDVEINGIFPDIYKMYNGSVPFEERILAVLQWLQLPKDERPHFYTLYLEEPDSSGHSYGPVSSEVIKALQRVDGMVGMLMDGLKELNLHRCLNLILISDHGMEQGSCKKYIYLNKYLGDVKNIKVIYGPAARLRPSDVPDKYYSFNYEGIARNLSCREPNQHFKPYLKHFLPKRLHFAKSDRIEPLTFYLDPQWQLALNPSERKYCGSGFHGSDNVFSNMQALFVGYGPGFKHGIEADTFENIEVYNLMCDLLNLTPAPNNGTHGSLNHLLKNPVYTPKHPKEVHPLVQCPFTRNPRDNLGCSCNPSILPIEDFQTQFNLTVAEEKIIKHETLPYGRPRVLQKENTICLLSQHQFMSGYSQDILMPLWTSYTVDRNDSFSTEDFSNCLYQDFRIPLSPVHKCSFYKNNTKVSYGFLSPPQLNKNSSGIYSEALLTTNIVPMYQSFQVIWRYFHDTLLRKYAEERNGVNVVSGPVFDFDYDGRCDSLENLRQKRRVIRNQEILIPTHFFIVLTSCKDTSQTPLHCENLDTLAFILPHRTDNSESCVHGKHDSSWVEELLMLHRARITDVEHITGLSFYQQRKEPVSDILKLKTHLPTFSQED

T3: cynomolgus monkey ENPP3 (cynomolgus monkey, UniProt A0A2K5TKP4 46-874)
T3 construct: also called cyno ENPP3
T3 sequence: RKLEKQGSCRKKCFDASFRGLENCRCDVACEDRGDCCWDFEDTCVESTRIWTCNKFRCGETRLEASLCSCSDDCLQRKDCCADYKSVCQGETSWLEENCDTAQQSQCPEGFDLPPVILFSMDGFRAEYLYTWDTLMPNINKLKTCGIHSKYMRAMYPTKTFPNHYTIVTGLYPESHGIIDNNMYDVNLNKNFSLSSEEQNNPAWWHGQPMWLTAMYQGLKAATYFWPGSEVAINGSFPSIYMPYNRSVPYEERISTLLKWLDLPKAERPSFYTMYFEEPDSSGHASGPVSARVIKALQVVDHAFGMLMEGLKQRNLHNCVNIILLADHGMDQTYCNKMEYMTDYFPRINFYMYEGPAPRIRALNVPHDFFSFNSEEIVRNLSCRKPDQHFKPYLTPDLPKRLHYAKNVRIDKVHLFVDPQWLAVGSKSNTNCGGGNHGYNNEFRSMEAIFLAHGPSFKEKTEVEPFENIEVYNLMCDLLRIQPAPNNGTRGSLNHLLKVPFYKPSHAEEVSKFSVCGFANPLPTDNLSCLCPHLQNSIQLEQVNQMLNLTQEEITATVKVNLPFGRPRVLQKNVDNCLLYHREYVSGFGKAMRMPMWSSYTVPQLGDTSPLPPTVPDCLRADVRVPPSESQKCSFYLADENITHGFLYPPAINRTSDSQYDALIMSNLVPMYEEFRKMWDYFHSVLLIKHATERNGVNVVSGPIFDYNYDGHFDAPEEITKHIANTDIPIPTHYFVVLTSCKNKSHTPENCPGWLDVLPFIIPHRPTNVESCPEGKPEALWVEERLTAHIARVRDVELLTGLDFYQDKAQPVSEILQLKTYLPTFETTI

T4: human ENPP3 on cells (human, UniProt O14638 1-875)
T4 construct: whole, on cells; also called ENPP3 on A704, VMRCRCW, HepG2, TUHR4TKB, TUHR10TKB; CHO-K1 ENPP3 OE
T4 sequence (looked up): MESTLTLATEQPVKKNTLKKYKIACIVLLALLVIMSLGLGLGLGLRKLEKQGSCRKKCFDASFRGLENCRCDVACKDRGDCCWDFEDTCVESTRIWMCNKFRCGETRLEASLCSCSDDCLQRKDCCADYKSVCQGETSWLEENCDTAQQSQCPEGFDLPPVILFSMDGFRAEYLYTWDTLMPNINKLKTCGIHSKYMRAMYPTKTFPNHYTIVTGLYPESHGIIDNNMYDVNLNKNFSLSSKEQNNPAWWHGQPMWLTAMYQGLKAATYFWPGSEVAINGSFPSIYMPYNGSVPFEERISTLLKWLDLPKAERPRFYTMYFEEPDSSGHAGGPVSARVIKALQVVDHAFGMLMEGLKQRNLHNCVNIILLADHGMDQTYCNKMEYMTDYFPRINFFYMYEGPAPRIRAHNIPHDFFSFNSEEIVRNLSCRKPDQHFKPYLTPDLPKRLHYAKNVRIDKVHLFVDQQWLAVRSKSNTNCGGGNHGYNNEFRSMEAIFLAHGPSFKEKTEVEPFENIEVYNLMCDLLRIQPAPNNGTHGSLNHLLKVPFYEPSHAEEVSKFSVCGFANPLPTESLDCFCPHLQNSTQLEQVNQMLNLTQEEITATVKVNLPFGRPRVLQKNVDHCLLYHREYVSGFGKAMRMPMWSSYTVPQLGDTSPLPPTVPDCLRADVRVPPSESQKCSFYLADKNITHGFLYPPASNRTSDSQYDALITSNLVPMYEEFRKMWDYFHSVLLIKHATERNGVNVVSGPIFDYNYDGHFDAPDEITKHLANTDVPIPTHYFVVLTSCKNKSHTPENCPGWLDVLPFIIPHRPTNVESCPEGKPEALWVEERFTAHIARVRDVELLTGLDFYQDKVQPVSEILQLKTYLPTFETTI

B1: NPP3B101 (antibody, V domains shown)
VH: QVQLQESGPGLVKTSETLSLTCTVSGGSISSHYWSWIRQPPGKGLEWIGNIFYSGSTNYNPSLKSRVTMSVDTSKNHFSLKLISVTTADTAIYYCARHDHVWFDPWGQGTLVTVSS
VL: EIVLTQSPGTLSVFPGERATLSCRASQSVSRNLVWYQQKPGQAPRLLIYGASTRATGIPDRFSGSGSGTEFTLTISSLQSEDFAVYYCQQYNNWPPWTFGQGTKVEIK
notes: mAb from Ablexis Kappa mice
B2: NPP3B61 (antibody, V domains shown)
VH: QVQLQESGPGLVRPSETLSLTCTVSGGSISSYYWSWIRQPAGKGLEWIGRIYTTGRIYTSGYTNYNPSLKSRVTMSIDTSKIQFSLRLNSVTAADTAVYWCARGGELFTDGFDIWGQGTMVTVSS
VL: EIVMTQSPGTLSLSPGERATLSCRASQSVISTYLAWYQQNPGQAPRLLIYGASSRATGIPDRFSGSGSGTDFTLTISRLEPEDFAVYYCQQYDTSPITFGQGTRLEIK
notes: mAb from Ablexis Kappa mice
B3: NPP3B62 (antibody, V domains shown)
VH: B2 VH
VL: B2 VL with A85V
notes: mAb from Ablexis Kappa mice
B4: NPP3B194 (bispecific antibody, IgG1)
VH: EVQLVESGGGRVKPGGSLRLSCAASGFTFSDYSMNWVRQAPGKGLEWVSSISSISSYVKYADSVKGRFTMSRDNAKNSLFLQMNSLRDEDMAVYYCARGHYFDYWGQGTLVTVSS
VL: EIVMTQSPATLSVSPGERATLSCRASQSVSSNLAWYQQKPGLAPRLLIYGASTRATGIPARFSGSGSGTEFTLTISSLQSEDFAVYYCQQYNNWPRTFGQGTKVEIK
scFv: EIVLTQSPATLSASPGERVTLSCSASSSVSYMNWYQQKPGQAPRRWIYDSSKLASGVPARFSGSGSGRDYTLTISSLEPEDFAVYYCQQWSRNPPTFGGGTKVEIKGGSEGKSSGSGSESKSTGGSQVQLVQSGAEVKKPGSSVKVSCKASGYTFTRSTMHWVKQAPGQGLEWIGYINPSSAYTNYNQKFQGRVTLTADKSTSTAYMELSSLRSEDTAVYYCASPQVHYDYAGFPYWGQGTLVTVSS
notes: ENPP3 Fab as VH1-CH1-hinge-CH2-CH3 IgG1 with hole T366S, L368A, Y407V and VL1-CL; scFv in VL-linker-VH-Fc orientation; also called unstapled (scFv) ENPP3×CD3; ScFv version of NPP3B815
B5: NPP3B239 (bispecific antibody, IgG1)
VH: EVQLVESGGGLVKPGGSLRLSCAASGFIFSDYSMNWVRQAPGKGLEWVSSISSGSSYIYYADSLKGRFTISRDNAKNSLYLQMSSLRAEDTAVYYCVRGLDYFDYWGQGALVTVSS
VL: DIQMTQSPSFLSASVGDRVTITCRASQDISNYLAWYQQKPGRAPKLLIYVASTLQSGVPSRFSGSGSGTEFTLTISSLQPEDFATYYCQQLNSYPRTFGQGTKVEIK
scFv: B4 scFv
notes: Fab-IgG1 (hole) plus scFv-Fc in VL-linker-VH-Fc orientation; also called NPP3B239.003
B6: NPP3B232 (bispecific antibody, IgG1)
VH: QVQLQESGPGLVKPSETLSLTCTVSGGSISNYYWSWIRQPAGKGLEWIGRIYASGSTNYNPSLKSRVTMSVDTSKNQFSLRLRSVTATDTAVYYCAREGYSSTLYDNAFDFWGQGTMVTVSS
VL: DIQMTQSPSSVSASVGGRVTITCRASQGISTWLAWYQQKPGKAPKLLIYAASSLQSGVPSRFSGSGSGTDFTLTISSLQPEDFATYYCQQANSFPLTFGGGTKVEIK
scFv: B4 scFv
notes: Fab-IgG1 (hole) plus scFv-Fc in VL-linker-VH-Fc orientation

The results in this text go back to US20250163182A1 (Janssen / Centocor, published 2025).

Positions count from the first letter of the chain named. Numbers in names are those of the source.

The first experiment addresses T1, human ENPP3. In words: binding affinity to human ENPP3; method not stated.
With B1, the dissociation constant (Kd) is 0.193 nM.

For the molecule B2, binding was characterised by a dissociation constant (Kd) of 0.443 nM.

On to B3, for which the Kd stood at 0.258 nM.

The target of the next experiment is T2, ENPP1 on CHOK1 cells. In words: flow cytometry on CHO cells overexpressing ENPP1.
Regarding B4, the binding result is on record as “no binding (tested: Log(ug/mL) about 1.1 (about 12 ug/mL))”.

On to B5, for which the binding result is “no binding (tested: Log(ug/mL) about 1.1 (about 12 ug/mL))”.

As to B6, the binding result is listed as “no binding (tested: Log(ug/mL) about 1.1 (about 12 ug/mL))”.

The next experiment addresses T3, cynomolgus monkey ENPP3. Kind of experiment: binding affinity to cyno ENPP3; method not stated.
Regarding B1, the Kd was found to be 9.58 nM.

In turn, B2 gave a Kd of 109 nM.

For B3, the Kd was found to be 12 nM.

In a further experiment the target is ENPP2 on CHOK1 cells (UniProt Q13822 36-863). In words: flow cytometry on CHO cells overexpressing ENPP2.
For the molecule B4, the binding result was “no binding (tested: Log(ug/mL) about 1.1 (about 12 ug/mL))”.

B5: the binding result is reported as “no binding (tested: Log(ug/mL) about 1.1 (about 12 ug/mL))”.

For the molecule B6, the binding result is on record as “no binding (tested: Log(ug/mL) about 1.1 (about 12 ug/mL))”.

For a further experiment, the target named is T4, human ENPP3 on cells. In words: flow cytometry on CHO cells overexpressing ENPP3. Here is the method: To evaluate the specificity of binders to ENPP3 compared to other ENPP family members, cell binding was assessed on CHOK1 cells overexpressing ENPP1, ENPP2, or ENPP3 (FIG. 9).
Take B4: the half-maximal effective concentration (EC50 (read off the curve)) is approximately 0.5 µg/mL.

On to B5, for which the “EC50 (read off the curve)” value is approximately 1 µg/mL.

Regarding B6, the concentration for a half-maximal effect (EC50 (read off the curve)) is approximately 0.5 µg/mL.
